Experimental findings from US20090280543A1, “REGIOSELECTIVE GLYCOSYLATION” (THE UNIVERSITY OF YORK, priority 2005, published 2009) are described below.

To fix the notation:
B1: GT 88A1: Arabidopsis thaliana glycosyltransferase, SEQ ID NO: 97 (nucleotide), 133 (amino acid) (protein, listed as Arabidopsis thaliana)
chain: MGEEAIVLYPAPPIGHLVSMVELGKTILSKNPSLSIHIILVPPPYQPESTATYISSVSSSFPSITFHHLPAVTPYSSSSTSRHHHESLLLEILCFSNPSVHRTLFSLSRNFNVRAMIIDFFCTAVLDITADFTFPVYFFYTSGAACLAFSFYLPTIDETTPGKNLKDIPTVHIPGVPPMKGSDMPKAVLERDDEVYDVFIMFGKQLSKSSGIIINTFDALENRAIKAITEELCFRNIYPIGPLIVNGRIEDRNDNKAVSCLNWLDSQPEKSVVFLCFGSLGLFSKEQVIEIAVGLEKSGQRFLWVVRNPPELEKTELDLKSLLPEGFLSRTEDKGMVVKSWAPQVPVLNHKAVGGFVTHCGWNSILEAVCAGVPMVAWPLYAEQRFNRVMIVDEIKIAISMNESETGFVSSTEVEKRVQEIIGECPVRERTMAMKNAAELALTETGSSHTALTTLLQSWSPK
B2: GT 74B1: Arabidopsis thaliana glycosyltransferase, SEQ ID NO: 35 (nucleotide), 124 (amino acid) (protein, listed as Arabidopsis thaliana)
chain: MAETTPKVKGHVVILPYPVQGHLNPMVQFAKRLVSKNVKVTIATTTYTASSITTPSLSVEPISDGFDFIPIGIPGFSVDTYSESFKLNGSETLTLLIEKFKSTDSPIDCLIYDSFLPWGLEVARSMELSAASFFTNNLTVCSVLRKFSNGDFPLPADPNSAPFRIRGLPSLSYDELPSFVGRHWLTHPEHGRVLLNQFPNHENADWLFVNGFEGLEETQDCENGESDAMKATLIGPMIPSAYLDDRMEDDKDYGASLLKPISKECMEWLETKQAQSVAFVSFGSFGILFEKQLAEVAIALQESDLNFLWVIKEAHIAKLPEGFVESTKDRALLVSWCNQLEVLAHESIGCFLTHCGWNSTLEGLSLGVPMVGVPQWSDQMNDAKFVEEVWKVGYRAKEEAGEVIVKSEELVRCLKGVMEGESSVKIRESSKKWKDLAVKAMSEGGSSDRSINEFIESLGK
B3: GT 71C4: Arabidopsis thaliana glycosyltransferase, SEQ ID NO: 10 (nucleotide), 110 (amino acid) (protein, listed as Arabidopsis thaliana)
chain: MVKETELIFIPVPSTGHILVHIEFAKRLINLDHRIHTITILNLSSPSSPHASVFARSLIASQPKIRLHDLPPIQDPPPFDLYQRAPEAYIVKLIKKNTPLIKDAVSSIVASRRGGSDSVQVAGLVLDLFCNSLVKDVGNELNLPSYIYLTCNARYLGMMKYIPDRHRKIASEFDLSSGDEELPVPGFINAIPTKFMPPGLFNKEAYEAYVELAPRFADAKGILVNSFTELEPHPFDYFSHLEKFPPVYPVGPILSLKDRASPNEEAVDRDQIVGWLDDQPESSVVFLCFGSRGSVDEPQVKEIARALELVGCRFLWSIRTSGDVETNPNDVLPEGFMGRVAGRGLVCGWAPQVEVLAHKAIGGFVSHCGWNSTLESLWFGVPVATWPMYAEQQLNAFTLVKELGLAVDLRMDYVSSRGGLVTCDEIARAVRSLMDGGDEKRKKVKEMADAARKALMDGGSSSLATARFIAELFEDGSSC
B4: GT 71 D1: Arabidopsis thaliana glycosyltransferase, SEQ ID NO: 12 (nucleotide), 111 (amino acid) (protein, listed as Arabidopsis thaliana)
chain: MRNVELIFIPTPTVGHLVPFLEFARRLIEQDDRIRITILLMKLQGQSHLDTYVKSIASSQPFVRFIDVPELEEKPTLGSTQSVEAYVYDVIERNIPLVRNIVMDILTSLALDGVKVKGLVVDFFCLPMIDVAKDISLPFYVFLTTNSGFLAMMQYLADRHSRDTSVFVRNSEEMLSIPGFVNPVPANVLPSALFVEDGYDAYVKLAILFTKANGILVNSSFDIEPYSVNHFLQEQNYPSVYAVGPIFDLKAQPHPEQDLTRRDELMKWLDDQPEASVVFLCFGSMARLRGSLVKEIAHGLELCQYRFLWSLRKEEVTKDDLPEGFLDRVDGRGMICGWSPQVEILAHKAVGGFVSHCGWNSIVESLWFGVPIVTWPMYAEQQLNAFLMVKELKLAVELKLDYRVHSDEIVNANEIETAIRYVMDTDNNVVRKRVMDISQMIQRATKNGGSSFAAIEKFIYDVIGIKP
B5: GT 72D1: Arabidopsis thaliana glycosyltransferase, SEQ ID NO: 18 (nucleotide), 113 (amino acid) (protein, listed as Arabidopsis thaliana)
chain: MDQPHALLVASPGLGHLIPILELGNRLSSVLNIHVTILAVTSGSSSPTETEAIHAAAARTICQITEIPSVDVDNLVEPDATIFTKMVVKMRAMKPAVRDAVKLMKRKPTVMIVDFLGTELMSVADDVGMTAKYVYVPTHAWFLAVMVYLPVLDTVVEGEYVDIKEPLKIPGCKPVGPKELMETMLDRSGQQYKECVRAGLEVPMSDGVLVNTWEELQGNTLAALREDEELSRVMKVPVYPIGPIVRTNQHVDKPNSIFEWLDEQRERSVVFVCLGSGGTLTFEQTVELALGLELSGQRFVWVLRRPASYLGAISSDDEQVSASLPEGFLDRTRGVGIVVTQWAPQVEILSHRSIGGFLSHCGWSSALESLTKGVPIIAWPLYAEQWMNATLLTEEIGVAVRTSELPSERVIGREEVASLVRKIMAEEDEEGQKIRAKAEEVRVSSERAWSKDGSSYNSLFEWAKRCYLVP
B6: GT 71C2: Arabidopsis thaliana glycosyltransferase, SEQ ID NO: 8 (nucleotide), 109 (amino acid) (protein, listed as Arabidopsis thaliana)
chain: MAKQQEAELIFIPFPIPGHILATIELAKRLISHQPSRIHTITILHWSLPFLPQSDTIAFLKSLIETESRIRLITLPDVQNPPPMELFVKASESYILEYVKKMVPLVRNALSTLLSSRDESDSVHVAGLVLDFFCVPLIDVGNEFNLPSYIFLTCSASFLGMMKYLLERNRETKPELNRSSDEETISVPGFVNSVPVKVLPPGLFTTESYEAWVEMAERFPEAKGILVNSFESLERNAFDYFDRRPDNYPPVYPIGPILCSNDRPNLDLSERDRILKWLDDQPESSVVFLCFGSLKSLAASQIKEIAQALELVGIRFLWSIRTDPKEYASPNEILPDGFMNRVMGLGLVCGWAPQVEILAHKAIGGFVSHCGWNSILESLRFGVPIATWPMYAEQQLNAFTIVKELGLALEMRLDYVSEYGEIVKADEIAGAVRSLMDGEDVPRRKLKEIAEAGKEAVMDGGSSFVAVKRFIDGL

The first series in a line: Removal of aglycones through adsorption by PVPP, analysed by RP-HPLC. The series is classed as physicochemical. The conditions noted are these: ratio of compounds removed by PVPP over that in the untreated samples. The method, then: FIG. 7: Removal of different aglycones through adsorbtion by PVPP. The removal of a) trans-resveratrol (100%), b) esculetin (70%), c) daidzein (81%), and d) scopoletin (92%) by PVPP was analyzed by RP-HPLC. The efficiency was defined as the ratio of compounds removed by PVPP over that in the untreated samples;
(§1) Reverse-phase HPLC (RP-HPLC): RP-HPLC (Agilent 1100 system with Photodiode Array Detector, Agilent, U.K.) analysis was carried out using a Columbus 5-μ C18 column (150×3.20 mm, Phenomenex, U.K.). Glucosides were separated from their respective aglycones using a linear gradient of acetonitrile/0.1% formic acid (v/v) in H2O: 10-45% (trans-resveratrol/glucosides), 10-50% (daidzein/glucosides) at 0.5 mL/min over 20 min and monitored at 280 nm and 250 nm. Separation of scopoletin/scopolin and esculetin/esculin was carried out using the conditions described previously.^[11]
(§2) Stage 3, detection: 50 μl of the reaction mix were transferred to a 96-well filtration plate (Abgene, U.K.), mixed with an equal volume of PVPP aqueous suspension (25 g/L), shaken for 1 h at 25° C. before centrifugation (1000 g, 5 min). To each filtrate, 50 mM 2-morpholino-ethanesulfonic acid buffer (MES) (pH 7.0), ABTS™ (0.1 mM), peroxidase (2 U) and glucose oxidase (2 U) were added to a final volume of 125 μl. The formation of the green dye was monitored at 405 nm at 30 min using a plate reader (Bio-Tec Instruments Inc., U.S.A).
`O=c1c(-c2ccc(O)cc2)coc2cc(O)ccc12` [daidzein]: the “removal by PVPP (efficiency)” value is 81%.

`O=c1ccc2cc(O)c(O)cc2o1` [esculetin]: the “removal by PVPP (efficiency)” value is reported as 70%.

Consider `COc1cc2ccc(=O)oc2cc1O` [scopoletin], for which the “removal by PVPP (efficiency)” value came to 92%.

As for `Oc1ccc(/C=C/c2cc(O)cc(O)c2)cc1` [trans-resveratrol], the “removal by PVPP (efficiency)” value came out at 100%.

A short description of a further series: Whole-cell biocatalysis screen of GT library against the aglycone trans-resveratrol (RP-HPLC of glucosides). In kind it is cell-based, E. coli. The conditions noted are these: 500 µM aglycone, 44 h, 25° C.
From the text: FIG. 4: Screening of a GT-library against the aglycone trans-resveratrol. a) The readings at A405 nm for D-glucose detection are presented in a colored code format. b) Examples of RP HPLC trace of active and non active GTs in whole cell biocatalysis are illustrated. c) The regioselectivity of the active GTs towards trans-resveratrol, defined by the percentage of a regiospecific glucoside in the total amount of monoglucosides formed;
as §1
The cDNA library of 96 Arabidopsis thaliana GTs was subcloned into the multiple cloning site of the glutathione-S-transferase (GST) gene fusion vector pGEX-2T (Amersham Biosciences, U.K.) as described previously^[10] and transformed into the strain E. coli BL21 (DE3) for use in the screening method.
Stage 1, biotransformation: single colonies of the GT library grown on LB-agar plates overnight were transferred to individual wells in a 96-well bacterial culture plate containing 400 μl 2×YT medium (16 g/L bacto tryptone, 10 g/L yeast extract, 5 g/L NaCl) and 50 μg/mL ampicillin. The plate was covered with an adhesive plate seal (Abgene, U.K.) and incubated at 37° C. (250 rpm). The bacterial growth was monitored at 595 nm by a plate reader. After 4 h, the cultures had reached exponential phase. The plate was centrifuged (4000 g, 10 min), the supernatants discarded and cell pellets were resuspended in isopropyl-D-thiogalactopyranoside (0.1 mM), 2-(N-morpholino)ethanesulfonic acid (50 mM, pH 7.0), ampicillin (50 μg/mL), L-arabinose (10 g/L) and 500 µM of aglycone to a total whole-cell reaction volume of 400 μl/well. The 96-well plate was closed with a gas permeable adhesive plate seal, wrapped in alu foil for light protection and incubated at 25° C. (250 rpm). After 44 h the cultures were centrifuged (4000 g, 15 min) and the supernatants analyzed.
Stage 2, cleavage: supernatants (100 μl) were transferred to a microtiter plate, 1 μl of β-glucosidase (1 U) was added and the plate incubated for 90 min at 37° C.
as §2
The utility of the screening method and regioselective biocatalysis by the GTs are illustrated in FIGS. 2 and 3. Thirteen GTs recognized daidzein and twenty-five GTs were identified that glycosylated trans-resveratrol. […] The mono- and di-glucosides of daidzein (4-6) and trans-resveratrol (8-10), eluting earlier than the two aglycones under the RP-HPLC conditions used (FIGS. 2b and 3b), were identified using external standards when available, or by electrospray liquid chromatography-mass spectrometry (LC-MS). ^1H-NMR analysis was used to confirm the structure of the monoglucosides (Table 1, SEQ ID NO: 1-107). […] Similarly, regioselective glycosylation of trans-resveratrol was observed. […] Only trace levels of a diglucoside were observed under the reaction conditions used.
For B1, the “regioselective glycosylation of trans-resveratrol (position)” value (from here on “regioselective glycosylation”) is reported as “specific for the 3-OH position”.

B2: the “regioselective glycosylation” value is “specific for the 4′-OH position”.

As to B3, the “regioselective glycosylation” value is “specific for the 3-OH position”.

Take B4: the “regioselective glycosylation” value is “specific for the 3-OH position”.

For B5, the “regioselective glycosylation” value is “specific for the 3-OH position”.

Consider B6, for which the “regioselective glycosylation” value was “specific for the 3-OH position”.
